Like-named read-outs stand apart in the source and are kept apart here.
B1: IC008 (antibody, V domains shown)
VH: LVQLQESGPRLVTPSETLSLTCTVSGGSISSSRHYWGWIRQPPGMGLEWIGSIDYSGGTYCNPSLKSRVTISEDTSKNQFSLKVNSVTAADTAVYYCARQVGHSGRGHNWFDPWGQGTLVTVSS
VL: DIQMTQSPSSLSASVGDRVTITCRASQSIYNYLNWYQQKPGKAPKFLIYAASTLQTGVPSRFSGSGSGTDFTLTISSLQPEDFATYYCQQSYSSSVTFGQGTRLEIK
notes: also called CoV-bnMAB; mAb IC008
B2: IC001 (antibody, V domains shown)
VH: QVQLVQSGAEVKKPGASVKVSCKASGYTFTSYAMHWVRQAPGQRLEWMGWINAGNGNTKYSQKFQGRVTITRDTSASTAYMELSSLRSEDTAVYYCARDRHMVVPAAVFDYWGQGTLVTVSS
VL: AIQLTQSPSTLSASVGDRVTITCRASQSISSWLAWYQQKPGKAPKLLIYKASSLESGVPSRFSGSGSGTEFTLTISSLQPDDFATYYCQQYGTFGQGTKWISN
notes: also called CoV-bnMAB; mAb IC001

Assays:
[1] = target: T1, SARS-CoV-2 spike trimer (COVID19 S ectodomain, residues 1-1208) (SARS-CoV-2, UniProt P0DTC2 14-1208); assay: ELISA on spike trimer, IgG titrated
[2] = target: T2, SARS-CoV spike protein, full length on virus (SARS-CoV, UniProt P59594 14-1255); assay: cell-based or functional assay
[3] = target: T3, MERS-CoV spike protein, full length on virus or transfected cells (MERS-CoV, UniProt K9N5Q8 18-1353); assay: cell-based or functional assay
[4] = target: SARS-CoV-2 S protein, membrane form (SARS-CoV-2, UniProt P0DTC2 14-1273); assay: cell-based or functional assay
[5] = target: T2, SARS-CoV spike protein, full length on …; assay: cell-based or functional assay; remark: listed apart in the source
[6] = target: T3, MERS-CoV spike protein, full length on …; assay: cell-based or functional assay; remark: listed apart in the source
[7] = target: T4, SARS-CoV spike trimer (S ectodomain protein) (SARS-CoV, UniProt P59594 14-1195)
[8] = target: T1, SARS-CoV-2 spike trimer (COVID19 S …)
[9] = target: T1, SARS-CoV-2 spike trimer (COVID19 S …); remark: listed apart in the source
[10] = target: T4, SARS-CoV spike trimer (S ectodomain …); assay: SARS-CoV spike
[11] = target: T5, MERS-CoV spike trimer (S ectodomain protein) (MERS-CoV, UniProt K9N5Q8 18-1296); assay: MERS-CoV spike
T5 construct: also called MERS-CoV S ectodomain; MERS-CoV spike protein

[12] = target: T4, SARS-CoV spike trimer (S ectodomain …); remark: listed apart in the source
[13] = target: T1, SARS-CoV-2 spike trimer (COVID19 S …); remark: listed apart in the source
[14] = target: T5, MERS-CoV spike trimer (S ectodomain …)

Binder | EC50 (read off the curve) [1] | IC50, neutralisation [2] | IC50, neutralisation [3] | IC50, neutralisation [4] | neutralization of SARS-CoV pseudovirus (IC50) [5] | neutralization of MERS-CoV pseudovirus (IC50) [6] | EC50 [7] | EC50 [8] | EC50 [9] | fold weaker binding affinity than ACE2 [9] | EC50 [10] | EC50 [11] | Kd [12] | Kd [13] | Kd [14]
B1 | ~2 nM | 3 µg/mL | 2.9 µg/mL | 4.5 µg/mL | – | – | – | – | – | – | – | – | – | – | –
B2 | – | 2.8 µg/mL | 3 µg/mL | 2.2 µg/mL | 1.8 µg/mL | 2.9 µg/mL | 586 nM | 520 nM | 586 nM | ~7 fold | 520 nM | 857 nM | 700 nM | 700 nM | 1200 nM

Reference: patent US20240207401A1 (IMPERIAL COLLEGE INNOVATIONS, published 2024)
